Experimental data: patent US20240368668A1, “SUBSTRATES AND BIOMARKERS OF ADAMTS7” (The Broad Institute, Inc., priority 2021, published 2024)

Molecular target: T1, mouse ADAMTS7 (Mus musculus, UniProt Q68SA9, E373Q)
T1 construct: Full-length mouse Adamts7 1-1857 (Uniprot Q68SA9, WT or E373Q catalytic mutant); expressed in transfected cells; host or cells: Human Coronary Artery Smooth Muscle Cells (HCA-SMC, Lonza), adenovirus 50 MOI
T1 sequence (Q68SA9 221-1657 E373Q): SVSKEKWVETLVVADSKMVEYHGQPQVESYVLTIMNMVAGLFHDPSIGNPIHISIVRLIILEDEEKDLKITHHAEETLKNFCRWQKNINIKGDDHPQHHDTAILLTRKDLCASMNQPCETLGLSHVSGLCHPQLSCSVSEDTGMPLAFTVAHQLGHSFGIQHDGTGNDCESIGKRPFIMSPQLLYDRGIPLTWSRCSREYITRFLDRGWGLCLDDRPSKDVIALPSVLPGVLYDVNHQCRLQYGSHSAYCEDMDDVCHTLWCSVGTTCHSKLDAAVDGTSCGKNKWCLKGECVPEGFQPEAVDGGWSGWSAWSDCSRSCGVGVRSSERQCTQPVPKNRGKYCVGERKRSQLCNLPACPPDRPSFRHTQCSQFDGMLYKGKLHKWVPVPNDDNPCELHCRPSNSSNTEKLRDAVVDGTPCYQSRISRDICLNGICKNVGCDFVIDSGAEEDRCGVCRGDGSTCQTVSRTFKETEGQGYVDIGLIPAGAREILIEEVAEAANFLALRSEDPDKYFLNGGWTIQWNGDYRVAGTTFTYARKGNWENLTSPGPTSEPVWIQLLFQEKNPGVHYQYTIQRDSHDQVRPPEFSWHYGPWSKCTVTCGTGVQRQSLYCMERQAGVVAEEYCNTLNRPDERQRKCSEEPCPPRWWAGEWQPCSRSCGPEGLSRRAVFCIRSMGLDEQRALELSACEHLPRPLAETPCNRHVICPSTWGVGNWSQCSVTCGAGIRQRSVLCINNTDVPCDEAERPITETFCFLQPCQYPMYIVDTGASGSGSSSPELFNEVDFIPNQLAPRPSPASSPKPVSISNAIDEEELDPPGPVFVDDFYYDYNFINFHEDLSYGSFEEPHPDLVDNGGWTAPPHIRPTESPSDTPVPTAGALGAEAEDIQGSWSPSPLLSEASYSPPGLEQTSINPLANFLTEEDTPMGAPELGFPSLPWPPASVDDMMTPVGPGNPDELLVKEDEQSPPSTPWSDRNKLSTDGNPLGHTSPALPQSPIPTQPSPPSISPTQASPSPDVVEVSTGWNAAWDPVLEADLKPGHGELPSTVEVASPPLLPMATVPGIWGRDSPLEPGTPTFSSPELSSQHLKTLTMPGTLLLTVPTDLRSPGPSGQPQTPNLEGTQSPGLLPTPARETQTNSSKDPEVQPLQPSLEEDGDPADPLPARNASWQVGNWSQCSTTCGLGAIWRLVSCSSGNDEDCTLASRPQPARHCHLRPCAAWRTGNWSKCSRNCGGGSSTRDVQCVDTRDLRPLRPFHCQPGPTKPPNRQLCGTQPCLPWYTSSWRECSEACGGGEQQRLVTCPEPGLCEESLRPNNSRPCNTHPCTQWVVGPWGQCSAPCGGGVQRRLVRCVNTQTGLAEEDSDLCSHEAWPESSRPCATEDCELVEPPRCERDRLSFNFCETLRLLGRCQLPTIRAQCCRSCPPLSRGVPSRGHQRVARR
Experiment: TMT10 TAILS N-terminomics, SMC2 experiment (process replicates, trypsin/AspN digest)
Assay type: cell-based
Procedure, shortened: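 Full-length mouse ADAMTS7 (WT or E373Q mutant, C-terminal 3xFLAG) or luciferase was transduced via adenovirus, 50 MOI, into HCA-SMC (SMC1, SMC2) or HUVEC. SMC1: pooled media, technical triplicates 400 ug; SMC2: process triplicates 300 ug; HUVEC: process triplicates 200 ug, bFGF2 10 ng/ml.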

[1] = SMC2_TAILS HC, log fold change of N-terminal peptide, Ad-mADAMTS7 EQ over Luc

| logFC.mEQ.over.Luc [1] | logFC.mEQ.over.Luc (log fold change, ADAMTS7 EQ over luciferase) | Substance |
| --- | --- | --- |
| 0.06 |  | VIM_276 (YESVAAKNLQ; listed as Homo sapiens) |
| −0.10 |  | VIM_322 (QVQSLTCEV; listed as Homo sapiens) |
|  | 0.12 | VIM_433 (LVDTHSKR; listed as Homo sapiens) |
| −0.09 |  | ZSCAN4_25 (FQQSQGPAVQR; listed as Homo sapiens) |
